According to patent US20240190999A1:

What was measured:
[1] = biological target: biotinylated cynomolgus 4-1BB (bio.c4-1BB) (cynomolgus monkey) (UniProt A9YYE7); experiment: SPR (ProteOn XPR36), biotinylated c4-1BB immobilised on GLC chip, construct as analyte
[2] = biological target: biotinylated cynomolgus 4-1BB (bio.c4-1BB) (cynomolgus monkey) (UniProt A9YYE7); experiment: SPR (ProteOn XPR36); told of the group, largest difference is that of #47 by Table 15
[3] = biological target: biotinylated cynomolgus 4-1BB (bio.c4-1BB) (cynomolgus monkey) (UniProt A9YYE7); experiment: SPR (ProteOn XPR36); end of the group's range, tied to #47 by Table 15
[4] = biological target: biotinylated cynomolgus 4-1BB (bio.c4-1BB) (cynomolgus monkey) (UniProt A9YYE7); experiment: SPR (ProteOn XPR36); end of the group's range, tied to #44 by Table 15
[5] = biological target: biotinylated cynomolgus 4-1BB (bio.c4-1BB) (cynomolgus monkey) (UniProt A9YYE7); experiment: SPR (ProteOn XPR36), bio.c4-1BB on NLC chip, MpA analyte; mean of triplicate
[6] = biological target: biotinylated cynomolgus 4-1BB (bio.c4-1BB) (cynomolgus monkey) (UniProt A9YYE7); experiment: SPR (ProteOn XPR36), bio.c4-1BB on NLC chip, MpA analyte; mean of triplicate; apparent affinity (bivalent)
[7] = biological target: biotinylated human 4-1BB-Fc (bio.h4-1BB-Fc) (human) (UniProt Q07011); experiment: SPR (ProteOn XPR36), sequential injections; 100 nM MpA on 360 RU bio.h4-1BB-Fc on NLC chip
Chain of biotinylated human 4-1BB-Fc (bio.h4-1BB-Fc) (human) (Q07011 24-186 limits assumed): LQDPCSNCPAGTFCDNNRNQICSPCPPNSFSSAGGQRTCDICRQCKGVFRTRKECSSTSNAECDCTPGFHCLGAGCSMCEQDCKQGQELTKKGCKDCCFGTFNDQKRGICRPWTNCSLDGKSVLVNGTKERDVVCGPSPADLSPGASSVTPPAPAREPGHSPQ

Chain of biotinylated cynomolgus 4-1BB (bio.c4-1BB) (cynomolgus monkey) (A9YYE7 entry or part of it): as the sequence (Q07011 24-186 limits assumed) above, with P4L, N19S, R50K, T66I, P67S, F69Y, G75E, V149A counted along it

B1: bispecific construct #47 (designed binder)
chain: MRGSHHHHHHGSDLGEKLLVAALYGQDDEVRILLAAGADVNAKDQWGLTPLHKAALQGHLEIVEVLLKAGADVNAKDERGHTPLHWAARFGHLEIVEVLLKAGADVNAQDQKGYTPADLAALWGHEDIAEVLQKAAGSPTPTPTTPTPTPTTPTPTPTGSDLGKKLLEAARAGQDDEVRELLKAGADVNAKDTYGETPLHLAAWKGHLEIVEVLLKAGADVNAKDSIGITPLHVAAHHGHLEIVEVLLKAGADVNAKDKWGRTPLHLAALLGHLEIAEVLLKAGADVNAQDKSGKTPADLAADAGHDDIAEVLQKLN
Kd [1]: 2.9 nM
fold difference in binding affinity as compared to human 4-1BB [2]: < 4 fold
Kd [3]: 1.1 to 2.9 nM

B2: bispecific construct #44 (designed binder)
chain: MRGSHHHHHHGSDLGEKLLVAALYGQDDEVRILLAAGADVNAKDQWGLTPLHKAALQGHLEIVEVLLKAGADVNAKDERGHTPLHWAARFGHLEIVEVLLKAGADVNAQDQKGYTPADLAALWGHEDIAEVLQKAAGSPTPTPTTPTPTPTTPTPTPTGSDLGQKLLKAAQEGQDDEVRELLKAGADVNAKDLRGITPLHVAAWQGHLEIVEVLLKAGADVNAKDSKGETPLHLAAFRGHLEIVEVLLKAGADVNAQDQQGETPADLAALAGHVDIAEVLQKLN
Kd [4]: 1.1 to 2.9 nM
Kd [1]: 1.12 nM

B3: bispecific construct #49 (designed binder)
chain: MRGSHHHHHHGSDLGEKLLVAALYGQDDEVRILLAAGADVNAKDQWGLTPLHKAALQGHLEIVEVLLKAGADVNAKDERGHTPLHWAARFGHLEIVEVLLKAGADVNAQDQKGYTPADLAALWGHEDIAEVLQKAAGSPTPTPTTPTPTPTTPTPTPTGSDLGKKLLVAANVGQDDEVRILLAAGADVNAKDYHGYTPLHHAATYGHLEIVEVLLKAGADVNAKDQTGLTPLHLAAAKGHLEIVEVLLKAGADVNAQDHHGYTPADLAAFVGHEDIAVVLQKLN
Kd [1]: 1.48 nM

B4: Multispecific binding protein A (MpA) (designed binder)
chain: GSDLGKKLLEAARAGQDDEVRELLKAGADVNAKDYFSHTPLHLAARNGHLKIVEVLLKAGADVNAKDFAGKTPLHLAAADGHLEIVEVLLKAGADVNAQDIFGKTPADIAADAGHEDIAEVLQKAAGSPTPTPTTPTPTPTTPTPTPTGSDLGKKLLEAARAGQDDEVRELLKAGADVNAKDVLGWTPLHLAAFEGHLEIVEVLLKAGADVNAKDKKGWTPLQLAARTGHLEIVEVLLKAGADVNAKDHIGATPLHLAAWQGHPEIVEVLLKAGADVNAQDKSGKTPADLAADAGHEDIAEVLQKAAGSPTPTPTTPTPTPTTPTPTPTGSDLGQKLLKAAQEGQDDEVRELLKAGADVNAKDLRGITPLHVAAWQGHLEIVEVLLKAGADVNAKDSKGETPLHLAAFRGHLEIVEVLLKAGADVNAQDQQGETPADLAALAGHVDIAEVLQKAAGSPTPTPTTPTPTPTTPTPTPTGSDLGQKLLKAAQEGQDDEVRELLKAGADVNAKDLRGITPLHVAAWQGHLEIVEVLLKAGADVNAKDSKGETPLHLAAFRGHLEIVEVLLKAGADVNAQDQQGETPADLAALAGHVDIAEVLQKAAGSPTPTPTTPTPTPTTPTPTPTGSDLGKKLLEAARAGQDDEVRELLKAGADVNAKDYFSHTPLHLAARNGHLKIVEVLLKAGADVNAKDFAGKTPLHLAAADGHLEIVEVLLKAGADVNAQDIFGKTPADIAADAGHEDIAEVLQKAA
koff [5]: 2.7e-05 s⁻¹
kon [5]: 2.1e+06 M⁻¹ s⁻¹
Kd [6]: 0.014 nM
Binding stoichiometry [7]: 0.7
